Results taken from patent publication US20090062512A1, “Comparative ligand mapping from MHC class I positive cells” (priority 2000, published 2009).
“And” between values parts separate entries of the source, which are not always exact repeats. Equal values may be shown once. Read-outs that look alike come from different tables or passages of the source.

Experiments:
Type in all cases: cell-based
[1] = target: B*0702 class I MHC molecules in cells infected with the PR8 strain of influenza A virus (Homo sapiens, UniProt P01889)
[2] = target: A*0201 class I MHC molecules in cells infected with the PR8 strain of influenza A virus (Homo sapiens, UniProt P04439, D140Y/D185E/D98H/E176V/E277Q/G131W/G231S/I119V/I121R/I166T/I218V/L300P/L318F/N151K/N90K/P208A/P217A/Q86G/Q94H/R138H/R169H/T345S)
[3] = target: sHLA-A*0201 from MCF-7, MDA-MB-231, BT-20 and MCF10A (Homo sapiens, UniProt P04439, D140Y/D185E/D98H/E176V/E277Q/G131W/G231S/I119V/I121R/I166T/I218V/L300P/L318F/N151K/N90K/P208A/P217A/Q86G/Q94H/R138H/R169H/T345S); experiment: MS comparative analysis of sHLA-A*0201 peptides, breast cancer cell lines vs nontumorigenic MCF10A; settings: peptide epitope presented on sHLA-A*0201; for FOLD INCREASE BT-20 over MCF10A: BT-20 vs nontumorigenic MCF10A; for FOLD INCREASE MCF-7 over MCF10A: MCF-7 vs nontumorigenic MCF10A; for FOLD INCREASE MDA-MB-231 over MCF10A: MDA-MB-231 vs nontumorigenic MCF10A
[4] = PR8B0702: presentation by sHLA B*0702, influenza PR8 infected vs uninfected cells

Row | Substance | Fold Increase [2] | further results
1 | AARPATSTL | – | Fold Increase [1]: 5.1
2 | AIIGGTFTV | 4.17 | –
3 | AIVDKVPSV | 1.88 | –
4 | ALASHLIEA | 1.67 | –
5 | ALDEKLLNI | 1.61 | –
6 | ALDKATVLL | 2.13 | –
7 | ALLAGSEYLKL | 1.51 | –
8 | ALLDKLYAL | 3.1 | –
9 | ALLSAVTRL | Unique | –
10 | ALMDEVVKA | 2.59 | –
11 | ALNDHFVKL | 23.02 | –
12 | ALNEKLVNL | 1.52 | –
13 | ALQELLSKGL | 2.8 | –
14 | ALSDGVHKI | 1.88 and 2.36 | –
15 | ALVEIGPRFVL | 10.83 | –
16 | ALVSSLHLL | 1.51 | –
17 | ALWEAKEGGLL | 1.54 | –
18 | AMIELVERL | 1.81 | –
19 | APAGRKVGL | – | Fold Increase [1]: 1.5
20 | APEEHPVLL (listed as Homo sapiens) | – | Fold Increase [1, 4]: 1.92
21 | APGAPPRTL | – | Fold Increase [1]: 1.5
22 | APKIGPLGL | – | Fold Increase [1]: 1.54
23 | APKRPPSAF | – | Fold Increase [1]: 1.82
24 | APNRPPAAL | – | Fold Increase [1]: 1.5

Row | Substance | Fold Increase [2] | further results
25 | APPPPPKAL | – | Fold Increase [1]: 2.29
26 | APRGTGIVSA | – | Fold Increase [1]: 2.2
27 | APRPPPKM | – | Fold Increase [1]: 2.9
28 | APRPVAVAV | – | Fold Increase [1]: 1.5
29 | AQYEHDLEVA | – | FOLD INCREASE BT-20 over MCF10A [3]: 8; FOLD INCREASE MCF-7 over MCF10A [3]: 34; FOLD INCREASE MDA-MB-231 over MCF10A [3]: 2
30 | ARPATSL | – | Fold Increase [1]: 2.2
31 | AVGKVIPEL | 12.46 | –
32 | AVSDGVIKV | 8.98 | –
33 | DPMKARVVL | – | Fold Increase [1]: 1.87
34 | EPRPPHGEL | – | Fold Increase [1]: 2.7
35 | FAITAIKGV | 3.49 | –
36 | FIQTQQLHAA | Unique | –
37 | FLAEEGFYKF | 2.98 | –
38 | FLASESLIKQIPR | Unique | –
39 | FLFNTENKL | 1.85 | –
40 | FLGRINEI | 1.99 | –
41 | FLLEKGYEV | 1.81 | –
42 | FLPSYIIDV | 2.57 | –
43 | FMFDEKLVTV | 1.99 | –
44 | GIDSSSPEV | Unique | –
45 | GIVEGLMTTV | 3.1 | –
46 | GIWGFIKGV | 6.1 | –
47 | GLAEDSPKM | 2 | –
48 | GLAKLIADV | 2.91 | –

Row | Substance | Fold Increase [2] | further results
49 | GLATDVQTV | 3.5 | –
50 | GLDIDGIYRV | 1.95 | –
51 | GLDKQIQEL | 4.09 | –
52 | GLGPTFKL | unique | –
53 | GLIDGRLTI | 1.67 | –
54 | GLIENDALL | 1.71 | –
55 | GLLDPSVFHV | 2.17 | –
56 | GLMTTVHAIT | 2.5 | –
57 | GLMTTVHAITA | 3.2 | –
58 | GLMTTVHAITAT | Unique | –
59 | GLMTTVHAITATQ | Unique | –
60 | GLQDFDLLRV | 2.29 | –
61 | GLWDKFSEL | 2.59 | –
62 | GMASVISRL | Unique | –
63 | GMYIFLHTV | 2.32 | –
64 | GMYVFLHAV | 2.73 | –
65 | GPLDIEWLI (listed as Homo sapiens) | – | Fold Increase [1, 4]: 2.2
66 | GPPGTGKTAL | – | Fold Increase [1]: 1.5
67 | GPREAFRQL | – | Fold Increase [1]: 6.03
68 | GPRSSLRVL | – | Fold Increase [1]: 3.16
69 | GPYPYTL | – | Fold Increase [1]: 2.01
70 | GVAESIHLWEV | 2.89 | –
71 | GVIAEILRGV | 1.56 | –
72 | GVLDNIQAV | Unique | –

Row | Substance | Fold Increase [2] | further results
73 | GVYGDVHRV | 2.9 | –
74 | HLNEKRRF | – | Fold Increase [1]: 2.02
75 | IIMLEALERV | 13.68 | –
76 | ILCPMIFNL | 2.51 | –
77 | ILDKKVEKV | Unique | –
78 | ILGYTEHQV | 23.91 | –
79 | ILMEHIHKL | 5.46 | –
80 | ILSGVVTKM | 1.74 | –
81 | ILYDIPDIRL | 5.99 | –
82 | IMLEALERV | 1.64 | –
83 | IPSIQSRGL | – | Fold Increase [1]: 1.6
84 | ITAPPSRVL | – | Fold Increase [1]: 1.98
85 | KAPPAPLAA | Unique | –
86 | KIADFGWSV | 2.26 | –
87 | KIAPNTPQL | 2.63 | –
88 | KIFEMGPVFTL | 6.45 | –
89 | KIIDEDGLLNL | 1.56 | –
90 | KILDLETQL | – | FOLD INCREASE BT-20 over MCF10A [3]: 7; FOLD INCREASE MCF-7 over MCF10A [3]: 9; FOLD INCREASE MDA-MB-231 over MCF10A [3]: 1.4
91 | KLDEGNSL | 4.32 | –
92 | KLDPTKTTL | 2.93 | –
93 | KLEEIIHQI | 2.08 | –
94 | KLFDDDETGKISF | Unique | –
95 | KLFPDTPLAL | Unique | –
